Article PMC9776664, “Crystal structure of the feruloyl esterase from Lentilactobacillus buchneri reveals a novel homodimeric state” (Frontiers in Microbiology, 2022)

B1: feruloyl esterase (LbFAE) from Lentilactobacillus buchneri LN 4017, wild type (enzyme, UniProt D7RU28 1-260, looked up)
chain: MIKFVTTEINGLTLRGTAHVPDGEPGQQFPTVLMFHGFGAVRDEGFRLFIQMSNRLMENGIAAVRFDFGCHGESDGEFEDFTFSQELNEGSALIDAVKSMSFVDSTKFSLLGESLGSVAASIVAGKRSTELTSLCMWSPAASFLDEILNDHTLQGKTVDNVEKDGYFDFYGLKLGKAFFDDLKNINIFDNAKKYQGPVKIVYGTNDFIPEKYSHKYMDGYENGELVIVQDGDHGWQSVPSRKRILDETMKFFRKTLLEAK
notes: Feruloyl esterase annotated as type-A FAE (faeA) from L. buchneri silage additive strain LN4017 (ATCC PTA-6138); synthetic gene amplified with primers from the ATG start to the stop codon; the monomer structure includes 260 amino acids; Cloned into pNIC28-Bsa4 by LIC; Theoretical mass with His6 tag and TEV site 31.6 kDa; also called faeA; source: E. coli BL21(DE3)-T1, purified (Ni-NTA, SEC)

Assays:
LbFAE = biological target: T1, LbFAE (Lentilactobacillus buchneri, UniProt D7RU28); test: X-ray crystal structure, […] Å, wild-type crystal soaked with FA; type: binding; settings: active site; crystal grown with 0.1 M sodium cacodylate pH 6.5, 0.2 M calcium acetate, PEG 8000
T1 construct: gene faeA; synthetic gene in pNIC28-Bsa4, E. coli BL21(DE3)-T1; Ni-NTA and SEC; homodimer about 60 kDa; monomer model 260 residues; catalytic triad Ser114, Asp206, His233

[1] = biological target: the molecule itself; test: SEC; HiLoad 16/60 Superdex 200 prep grade, 20 mM Hepes pH 7.5, 150 mM NaCl, 1 ml/min, 4°C; calibrated with ferritin, aldolase, conalbumin, ribonuclease A
[2] = substrate: COC(=O)/C=C/c1ccc(O)c(OC)c1; test: HPLC of released ferulic acid, Michaelis-Menten fit; type: biochemical, Lentilactobacillus buchneri; settings: pH 6.5, 40 °C, free enzyme
Text: HPLC of released ferulic acid, Michaelis-Menten fit on LbFAE

[3] = substrate: COc1cc(/C=C/C(=O)Oc2ccc([N+](=O)[O-])cc2)ccc1O; test: spectrophotometric assay, Michaelis-Menten fit; type: biochemical, Lentilactobacillus buchneri; settings: pH 6.5, 40 °C, free enzyme
Text: spectrophotometric assay, Michaelis-Menten fit on LbFAE

Row | Molecule | X-ray crystal structure, 1.90 Å, wild-type crystal soaked with FA (LbFAE) | stoichiometry N [1] | Km [2] [µM] | Vmax [2] [µmol/min/mg] | kcat [2] [s⁻¹] | kcat/Km [2] [M⁻¹ s⁻¹] | Km [3] [µM] | Vmax [3] [µmol/min/mg] | kcat [3] [s⁻¹] | kcat/Km [3] [M⁻¹ s⁻¹]
1 | COc1cc(/C=C/C(=O)O)ccc1O [FA, 4-hydroxy-3-methoxy-cinnamic acid] | only FA (i.e., the product) resulted in a complex with LbFAE | – | – | – | – | – | – | – | – | –
2 | B1 | – | 2 | 65 | 6.57 | 16.3 | 252000 | 900 | 6.9 | 6.7 | 7540
